Where two headings read alike, the source gives them in different places. Non-standard residues stand in square brackets, D forms with d. Residues, ends and D or L forms follow the SMILES beside them. *: point of attachment. Dolaproine = CO[C@@H]([C@@H]1CCCN1)[C@@H](C)C(=O)O; Dil = CC[C@H](C)[C@H](NC)[C@@H](CC(=O)O)OC; X1 = C[C@@H](N*)[C@@H](O)c1ccccc1; NMeV = CN[C@H](C(=O)O)C(C)C

As a reminder, the IC50 is the concentration that gives 50% inhibition. By EC50 is commonly meant the concentration at which the effect is half-maximal. What is called Kd is the constant that tells how readily two partners part at equilibrium. What is called koff is a measure of how fast the partners let go of each other. What is called kon is the second-order rate constant of association. As a reminder, the TGI is how far tumour growth fell short of that in controls. Broadly, the T/C is the result in the treated group divided by that in the control group, in per cent.

The test system of one assay is NCI-H1573. In words: In-vitro cell viability assay (CellTiter-Glo). It counts as cell-based. The note with it: Homo sapiens. A general note: ATP-based viability assays read luminescence as a measure of living cells.
The next assay deals with T47D. In words: cells. The assay is classed as cell-based. The note with it: Homo sapiens, 144 h.
Another assay relates to NCI-H1975. In words: In-vitro cell viability assay (CellTiter-Glo). The assay is classed as cell-based. The note with it: Homo sapiens.
The next assay has as its system HT29. In words: In-vitro cell viability assay (CellTiter-Glo). The assay is classed as cell-based. The note with it: Homo sapiens, HT-29, 144 h.
A further assay concerns SNU-5. In words: In-vitro cell viability assay (CellTiter-Glo). Particulars: Homo sapiens. The assay is classed as cell-based.
Assay [1] deals with T1, recombinant human c-Met (human, UniProt P08581 25-932).
T1 construct: Recombinant protein used in ELISA and BLI; also called human c-MET protein; human-derived c-Met protein
T1 sequence (P08581 25-932 limits assumed): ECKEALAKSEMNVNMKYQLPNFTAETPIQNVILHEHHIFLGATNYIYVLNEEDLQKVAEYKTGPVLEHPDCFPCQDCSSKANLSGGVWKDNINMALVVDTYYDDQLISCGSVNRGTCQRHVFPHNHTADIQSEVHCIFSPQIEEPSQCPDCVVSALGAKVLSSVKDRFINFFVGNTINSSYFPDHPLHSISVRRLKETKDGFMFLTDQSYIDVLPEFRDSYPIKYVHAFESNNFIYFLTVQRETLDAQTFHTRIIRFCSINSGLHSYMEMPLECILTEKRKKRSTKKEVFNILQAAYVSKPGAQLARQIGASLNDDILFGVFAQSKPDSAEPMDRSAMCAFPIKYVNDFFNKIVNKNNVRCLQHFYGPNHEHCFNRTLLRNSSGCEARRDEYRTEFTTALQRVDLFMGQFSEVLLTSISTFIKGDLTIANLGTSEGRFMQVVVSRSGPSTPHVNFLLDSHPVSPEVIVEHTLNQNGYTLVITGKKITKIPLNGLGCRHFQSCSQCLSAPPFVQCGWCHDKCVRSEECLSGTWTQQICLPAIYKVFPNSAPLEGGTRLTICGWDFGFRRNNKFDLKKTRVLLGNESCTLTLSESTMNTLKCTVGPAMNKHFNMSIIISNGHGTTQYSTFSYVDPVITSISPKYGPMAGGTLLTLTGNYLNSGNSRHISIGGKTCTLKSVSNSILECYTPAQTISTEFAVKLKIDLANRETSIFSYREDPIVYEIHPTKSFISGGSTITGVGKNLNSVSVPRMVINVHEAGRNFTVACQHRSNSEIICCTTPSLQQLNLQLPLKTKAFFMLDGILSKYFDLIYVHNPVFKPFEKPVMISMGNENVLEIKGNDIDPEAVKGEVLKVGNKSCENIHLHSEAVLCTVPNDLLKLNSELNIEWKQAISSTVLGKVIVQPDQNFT
In words: ELISA on recombinant human c-Met. (In general: ELISA stands for enzyme-linked immunosorbent assay.)

Assay [2] deals with T1, recombinant human c-Met. In words: BLI, antibody as loading sample, human c-Met. Background: In BLI a coated tip is dipped into the sample, and binding shifts an interference pattern.
Assay [3] deals with T2, monkey c-Met (cynomolgus c-Met) (monkey (cynomolgus), UniProt A0A2K5UM36 25-932).
T2 construct: Recombinant protein used in ELISA and BLI; also called monkey-derived c-MET protein; recombinant monkey c-Met
T2 sequence (A0A2K5UM36 entry or part of it limits assumed, form in doubt): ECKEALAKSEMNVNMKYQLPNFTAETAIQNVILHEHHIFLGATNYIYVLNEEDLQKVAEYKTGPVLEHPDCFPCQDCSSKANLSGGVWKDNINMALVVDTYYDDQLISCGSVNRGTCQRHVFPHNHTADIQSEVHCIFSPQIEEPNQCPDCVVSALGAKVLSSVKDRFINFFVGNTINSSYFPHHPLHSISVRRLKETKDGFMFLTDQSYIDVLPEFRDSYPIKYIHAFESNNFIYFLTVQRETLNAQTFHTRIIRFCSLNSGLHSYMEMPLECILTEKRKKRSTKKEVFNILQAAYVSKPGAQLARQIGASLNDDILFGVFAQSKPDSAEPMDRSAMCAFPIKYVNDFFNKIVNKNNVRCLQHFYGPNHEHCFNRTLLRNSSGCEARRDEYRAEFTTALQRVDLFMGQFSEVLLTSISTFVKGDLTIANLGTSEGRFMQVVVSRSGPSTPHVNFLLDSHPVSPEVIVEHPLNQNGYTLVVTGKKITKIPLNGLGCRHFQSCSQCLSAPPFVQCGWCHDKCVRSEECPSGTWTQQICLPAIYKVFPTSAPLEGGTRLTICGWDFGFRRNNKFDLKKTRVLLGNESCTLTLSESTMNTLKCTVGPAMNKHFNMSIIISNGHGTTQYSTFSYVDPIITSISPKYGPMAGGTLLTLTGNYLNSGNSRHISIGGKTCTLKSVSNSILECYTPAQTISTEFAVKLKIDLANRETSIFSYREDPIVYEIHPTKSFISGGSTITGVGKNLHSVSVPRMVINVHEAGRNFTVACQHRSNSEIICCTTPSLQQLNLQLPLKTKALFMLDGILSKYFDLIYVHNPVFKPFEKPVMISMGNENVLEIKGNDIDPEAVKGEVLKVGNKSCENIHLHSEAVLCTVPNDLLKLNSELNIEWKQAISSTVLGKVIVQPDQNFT
In words: BLI, antibody as loading sample, monkey c-Met.

For assay [4], the target named is T2, monkey c-Met (cynomolgus c-Met). In words: ELISA on monkey (cynomolgus) c-Met.
The target in a further assay is T3, c-Met derived from mice (mice, UniProt P16056 25-931, limits assumed).
T3 construct: Antigen of the cross-reactivity ELISA; also called mouse c-Met
T3 sequence (P16056 25-931 limits assumed): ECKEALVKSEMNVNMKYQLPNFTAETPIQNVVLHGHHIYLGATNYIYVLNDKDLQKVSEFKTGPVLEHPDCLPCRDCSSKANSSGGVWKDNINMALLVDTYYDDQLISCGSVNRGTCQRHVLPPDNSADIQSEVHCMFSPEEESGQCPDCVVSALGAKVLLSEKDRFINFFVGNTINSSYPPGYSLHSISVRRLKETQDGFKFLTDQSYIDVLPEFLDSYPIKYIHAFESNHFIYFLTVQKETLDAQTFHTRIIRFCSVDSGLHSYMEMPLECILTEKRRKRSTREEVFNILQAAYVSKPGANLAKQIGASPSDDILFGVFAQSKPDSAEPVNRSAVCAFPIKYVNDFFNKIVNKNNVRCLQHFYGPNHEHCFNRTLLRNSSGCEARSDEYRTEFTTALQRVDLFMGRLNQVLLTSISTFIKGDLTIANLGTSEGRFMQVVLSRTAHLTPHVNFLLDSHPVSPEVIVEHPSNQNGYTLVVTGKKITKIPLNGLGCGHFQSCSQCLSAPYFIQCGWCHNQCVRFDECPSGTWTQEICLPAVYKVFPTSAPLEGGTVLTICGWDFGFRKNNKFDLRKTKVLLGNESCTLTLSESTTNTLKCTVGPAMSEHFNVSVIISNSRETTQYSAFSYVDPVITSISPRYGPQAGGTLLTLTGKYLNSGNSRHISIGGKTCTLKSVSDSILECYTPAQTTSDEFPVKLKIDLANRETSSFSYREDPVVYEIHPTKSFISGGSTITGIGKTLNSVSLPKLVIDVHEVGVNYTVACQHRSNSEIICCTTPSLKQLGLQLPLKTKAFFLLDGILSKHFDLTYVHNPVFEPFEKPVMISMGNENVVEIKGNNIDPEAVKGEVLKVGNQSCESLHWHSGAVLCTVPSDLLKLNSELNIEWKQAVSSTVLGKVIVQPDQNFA
In words: ELISA, cross-reactivity test with diluted M01.

A further assay has as its target T4, c-Met derived from dogs (dogs, UniProt Q75ZY9 25-935, limits assumed).
T4 construct: Antigen of the cross-reactivity ELISA; also called dog c-Met
In words: ELISA, cross-reactivity test with diluted M01.

For another assay, the target named is T5, c-Met derived from rats (rats, UniProt P97523 25-935, limits assumed).
T5 construct: Antigen of the cross-reactivity ELISA; also called rat c-Met
T5 sequence (P97523 25-935 limits assumed): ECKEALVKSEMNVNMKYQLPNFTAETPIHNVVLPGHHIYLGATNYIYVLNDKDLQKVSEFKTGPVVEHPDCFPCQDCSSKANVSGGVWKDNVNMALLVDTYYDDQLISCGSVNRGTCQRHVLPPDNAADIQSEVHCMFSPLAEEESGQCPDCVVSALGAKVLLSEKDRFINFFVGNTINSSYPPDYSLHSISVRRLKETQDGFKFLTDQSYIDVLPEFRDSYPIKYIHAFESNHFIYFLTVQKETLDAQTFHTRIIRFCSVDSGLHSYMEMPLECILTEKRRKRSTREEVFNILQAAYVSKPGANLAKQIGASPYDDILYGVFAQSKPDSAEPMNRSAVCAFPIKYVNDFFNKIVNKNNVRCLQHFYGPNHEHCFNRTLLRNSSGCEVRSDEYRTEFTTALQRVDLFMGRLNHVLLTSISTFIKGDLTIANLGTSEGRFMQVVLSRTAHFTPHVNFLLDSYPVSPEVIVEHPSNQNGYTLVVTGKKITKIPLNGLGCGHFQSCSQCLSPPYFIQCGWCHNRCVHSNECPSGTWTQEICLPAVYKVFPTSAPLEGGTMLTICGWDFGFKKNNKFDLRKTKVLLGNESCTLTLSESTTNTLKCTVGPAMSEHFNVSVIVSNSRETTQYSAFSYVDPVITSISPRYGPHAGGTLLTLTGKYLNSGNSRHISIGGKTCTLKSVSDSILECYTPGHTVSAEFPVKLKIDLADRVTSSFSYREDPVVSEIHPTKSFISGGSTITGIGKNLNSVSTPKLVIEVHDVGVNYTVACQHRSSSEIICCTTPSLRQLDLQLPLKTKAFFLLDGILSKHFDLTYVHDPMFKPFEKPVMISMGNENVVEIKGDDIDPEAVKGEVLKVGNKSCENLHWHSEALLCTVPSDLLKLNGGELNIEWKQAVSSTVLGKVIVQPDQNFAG
In words: ELISA, cross-reactivity test with diluted M01.

The subject of assay [5] is NCI-H441 human lung cancer xenograft. In words: NCI-H441 human lung cancer xenograft model. The assay is classed as in vivo, BALB/c nude mice. Particulars: 3 mg/kg i.v. QW × 2 weeks. As to the method: NCI-H441 tumor cells (ATCC, Catalog No. HTB-174) were maintained in vitro in RPMI 1640 medium supplemented with 10% FBS and 1% antibiotic-antimycotic at 37°C and 5% CO2 in air. Tumor cells NCI-H441 were routinely passaged twice a week by treatment with trypsin-EDTA. The cells with exponential growth were harvested and counted for tumor inoculation.
Mice were randomly assigned to groups of 10 each, and tumor cells were inoculated into the mice according to the experimental conditions shown in Table 19 below. Specifically, NCI-H441 tumor cells (5 × 10^6 cells/mouse) were subcutaneously inoculated into the right flank of each mouse together with 0.2 mL of PBS containing Matrigel (1:1). Treatment was started on day 14 after inoculation, when the mean tumor volume reached 180 mm^3, and the treatment start date was set as day 0. This experiment was performed for 35 days.
Statistical analysis was performed on the data obtained 35 days after the start of the experiment to determine differences in tumor volume and tumor weight between groups. […] All data were analyzed using SPSS 29.0. p < 0.05 was considered statistically significant.

T4 sequence (Q75ZY9 25-935 limits assumed): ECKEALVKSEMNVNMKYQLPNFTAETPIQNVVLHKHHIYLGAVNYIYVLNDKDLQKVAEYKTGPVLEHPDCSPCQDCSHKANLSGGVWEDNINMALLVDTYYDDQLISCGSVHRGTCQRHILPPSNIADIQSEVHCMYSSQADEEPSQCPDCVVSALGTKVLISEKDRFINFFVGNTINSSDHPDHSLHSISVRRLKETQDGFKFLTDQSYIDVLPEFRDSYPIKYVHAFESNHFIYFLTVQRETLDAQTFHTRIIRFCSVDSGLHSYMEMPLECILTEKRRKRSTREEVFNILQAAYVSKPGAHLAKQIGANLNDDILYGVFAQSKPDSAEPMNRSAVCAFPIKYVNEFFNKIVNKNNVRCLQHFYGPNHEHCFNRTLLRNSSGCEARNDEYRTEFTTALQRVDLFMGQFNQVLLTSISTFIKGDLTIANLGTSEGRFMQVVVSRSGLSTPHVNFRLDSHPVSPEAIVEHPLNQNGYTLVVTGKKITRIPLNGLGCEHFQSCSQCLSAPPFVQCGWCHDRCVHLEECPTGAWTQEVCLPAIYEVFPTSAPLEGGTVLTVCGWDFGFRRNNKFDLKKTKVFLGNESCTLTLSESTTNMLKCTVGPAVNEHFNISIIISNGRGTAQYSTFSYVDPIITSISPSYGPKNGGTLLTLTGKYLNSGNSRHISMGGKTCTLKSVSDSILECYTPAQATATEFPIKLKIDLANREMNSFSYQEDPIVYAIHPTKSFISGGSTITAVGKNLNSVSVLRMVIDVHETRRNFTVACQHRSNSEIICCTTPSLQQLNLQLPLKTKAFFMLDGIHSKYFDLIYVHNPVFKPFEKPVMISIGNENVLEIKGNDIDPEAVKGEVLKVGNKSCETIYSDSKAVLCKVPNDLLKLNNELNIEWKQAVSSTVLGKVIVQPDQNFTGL

For `CC[C@H](C)[C@@H]([C@@H](CC(=O)N1CCC[C@H]1[C@H](OC)[C@@H](C)C(=O)N[C@H](C)[C@@H](O)c1ccccc1)OC)N(C)C(=O)[C@@H](NC(=O)[C@@H](NC)C(C)C)C(C)C` [MMAE, monomethyl auristatin E, reference compound] (H-[NMeV]V[Dil][Dolaproine]-X1), the IC50 amounted to 0.42 nM in the assay with NCI-H1573 (144 h, NCI-H1573, 6 days incubation, read-out: IC50); 0.51 nM in the assay on T47D (6 days incubation, read-out: IC50); 0.3 nM in the assay with NCI-H1975 (144 h, NCI-H1975, 6 days incubation, read-out: IC50); 0.14 nM with HT29 (HT29, 6 days incubation, read-out: IC50); 0.42 nM in the assay with SNU-5 (144 h, SNU-5, 6 days incubation, read-out: IC50).
Turning to `CC[C@@]1(O)C(=O)OCc2c1cc1n(c2=O)Cc2c-1nc1cc3c(c4c1c2[C@@H](NC(=O)[C@@H](C)O)CC4)OCO3` [PBX-7016], the IC50 turned out to be 2.55 nM in the assay with NCI-H1573 (NCI-H1573, 144 h); 0.45 nM in the assay on T47D; 9.8 nM with NCI-H1975 (NCI-H1975, 144 h); 3.8 nM with HT29; 5.21 nM in the assay on SNU-5 (SNU-5, 144 h).

B1: anti-c-Met antibody (M01) (antibody, human IgG1, kappa, V domains shown)
VH: QVQLVQSGAEVKKPGASVKVSCKASGYIFTAYTMHWVRQAPGQGLEWMGWIKPNNGLANYAQKFQGRVTMTRDTSISTAYMELSRLRSDDTAVYYCARSEITTEFDYWGQGTLVTVSS
VL: DIVMTQSPDSLAVSLGERATINCKSSESVDSYANSFLHWYQQKPGQPPKLLIYRASTRESGVPDRFSGSGSGTDFTLTISSLQAEDVAVYYCQQSKEDPLTFGGGTKVEIKR
notes: Naked antibody; also called M01 antibody; M01 (Anti-cMet mAb)
For B1, the EC50 (in the assay with recombinant human c-Met [1]; in [4]) was 0.14 nM throughout. In addition, the Kd in the assay with recombinant human c-Met [2] came to 0.605 nM; in assay [3] it was 0.707 nM. The koff in the assay with recombinant human c-Met [2] amounted to 4.07e-05 s⁻¹; in assay [3], 5.69e-05 s⁻¹. Besides, the kon with recombinant human c-Met [2] came out at 67400 M⁻¹ s⁻¹; in assay [3], 80500 M⁻¹ s⁻¹. Also, the binding result with c-Met derived from mice, with c-Met derived from dogs and in the assay with c-Met derived from rats was “no binding” throughout.

B2: P23-MMAE: isotype ADC: anti-influenza A antibody (Navivumab, P23) with monomethyl auristatin E payload; DAR 3.1 (conjugate, chains of the INN, looked up)
VH: QVQLVQSGAEVKKPGASVKVSCKTSGYSFSTYGVSWVRQAPGQGPEWVGWISAYTGITDYAQKFQGRVTLTTDATTATAFLDLRSLRPDDTATYFCARDKVQGRVEVGSGGRHDYWGQGTLVIVSS
VL: EVVLTQSPGTLALPPGERATLSCRASHRVGSTYIAWYQQKSGQAPRRLIYGASNRATDIPDRFSGSGSGTDFTLTIRRLEPEDSAVYYCQQFSVSPWTFGQGTRVEIK
modifications: MMAE payload, DAR 3.1
As to B2, the “Tumor Volume” value is 180 ± 13 mm^3 in assay [5] (Day 0, mean ± SEM); 208 ± 19 mm^3 in assay [5] (Day 4, mean ± SEM); 244 ± 26 mm^3 in assay [5] (Day 7, mean ± SEM); 283 ± 36 mm^3 in assay [5] (Day 11, mean ± SEM); 287 ± 39 mm^3 in assay [5] (Day 14, mean ± SEM); 358 ± 66 mm^3 in assay [5] (Day 18, mean ± SEM). Further, the “Tumor Volume” value in assay [5] (Day 21, mean ± SEM) stood at 396 ± 71 mm^3; in [5] (Day 25, mean ± SEM), 563 ± 93 mm^3; in [5] (Day 28, mean ± SEM), 708 ± 119 mm^3; in assay [5] (Day 32, mean ± SEM), 977 ± 193 mm^3. Also, the TGI in [5] (Day 35) was 26.27%. The “Tumor Weight on Day 35” value in assay [5] (Day 35) came to 1.342 ± 0.247 g. The T/C in assay [5] (Day 35, tumor volume vs P23 isotype mAb group) came out at 76.70%. In assay [5] (Day 35, tumor weight vs P23 isotype mAb group), this molecule had a T/Cweight of 80.39%.

The values above are taken from patent EP4796128A1, “ANTI-C-MET ANTIBODY-DRUG CONJUGATE COMPRISING CAMPTOTHECIN DERIVATIVE” (Celltrion, Inc., priority 2023, dated 2025).
